Results published in PMC8488244.

Key:
[1] = target: GmCHS7:PDZlig-CeGFP (Glycine max) (UniProt P30081)
[2] = target: GmCHS7:PDZlig-CeGFP (Glycine max) (UniProt P30081); remark: listed apart in the source

Chain of UniProt P30081 (P30081 whole entry): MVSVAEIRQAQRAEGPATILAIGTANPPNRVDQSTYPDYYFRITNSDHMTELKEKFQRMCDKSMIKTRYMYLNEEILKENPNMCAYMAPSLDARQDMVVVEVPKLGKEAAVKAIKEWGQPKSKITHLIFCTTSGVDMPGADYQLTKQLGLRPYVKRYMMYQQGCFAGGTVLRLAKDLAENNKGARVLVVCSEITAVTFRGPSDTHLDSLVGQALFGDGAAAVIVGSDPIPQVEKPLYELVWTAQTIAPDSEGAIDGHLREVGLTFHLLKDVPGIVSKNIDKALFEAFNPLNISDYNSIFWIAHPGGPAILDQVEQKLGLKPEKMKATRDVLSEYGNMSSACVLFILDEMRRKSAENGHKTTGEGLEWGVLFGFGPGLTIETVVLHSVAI

GuCHR:PDZ-NeGFP (from UniProt Q61234 81-164)
titer of apigenin in strain DHF-2 (pYH153) compared to DHF-1 (pYH141) [1]: 1.1 fold
CHR ratio (CHR product to total CHS product) in E. coli BL21(DE3)-pYH153 [2]: 54.7%
